T1: human CD200R1 isoform a on CHOK1 cells (CHOK1/hCD200R1a) (human, UniProt Q8TD46 25-348)
T1 construct: also called CHOK1/CD200R1a
T1 sequence: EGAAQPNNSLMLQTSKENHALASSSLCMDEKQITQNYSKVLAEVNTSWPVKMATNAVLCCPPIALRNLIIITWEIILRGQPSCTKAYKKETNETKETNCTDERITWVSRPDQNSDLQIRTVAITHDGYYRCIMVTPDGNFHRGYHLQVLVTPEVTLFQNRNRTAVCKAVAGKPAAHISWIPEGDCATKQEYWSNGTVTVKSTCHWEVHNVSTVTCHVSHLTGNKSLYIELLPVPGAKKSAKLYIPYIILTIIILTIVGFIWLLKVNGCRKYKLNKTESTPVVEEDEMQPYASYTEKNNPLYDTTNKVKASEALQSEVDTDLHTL

T2: Cynomolgus macaques CD200R1 isoform a on CHOK1 cells (CHOK1/cynoCD200R1a) (Cynomolgus macaques)
T2 chain: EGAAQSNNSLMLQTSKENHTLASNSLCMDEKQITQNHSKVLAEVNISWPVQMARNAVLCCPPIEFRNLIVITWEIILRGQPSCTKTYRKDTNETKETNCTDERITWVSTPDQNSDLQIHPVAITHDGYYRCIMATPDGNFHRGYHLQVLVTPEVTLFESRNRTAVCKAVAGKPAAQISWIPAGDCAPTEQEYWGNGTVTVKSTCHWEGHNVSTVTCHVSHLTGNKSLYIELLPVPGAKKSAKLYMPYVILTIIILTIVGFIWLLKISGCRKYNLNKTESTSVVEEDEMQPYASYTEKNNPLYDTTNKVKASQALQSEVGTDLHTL


How the values were obtained:
[1] = target: T1, human CD200R1 isoform a on CHOK1 cells …; assay: flow cytometry, CHOK1/hCD200R1a cells; table beside the curves
Description: (§1) This example is intended to investigate the in vitro binding activity of human anti-CD200R1 monoclonal antibodies to human/Cynomolgus macaques CD200R1a expressed on the surface of cells. The anti-CD200R1 antibodies were produced as described in Example 3.4 and the binding experiments at the cell level were performed using CHOK1/hCD200R1a and CHOK1-cynoCD200R1a.
(§2) Briefly, CHOK1/hCD200R1a cells and CHOK1-cynoCD200R1a cells were digested, and collected, and then were resuspended in PBS containing 2% BSA, respectively. The cell density was adjusted to 1×10⁶ cells/mL. The cells were seeded in a 96-well V-bottom plate (Corning, #3894) at 100 μL/well, followed by the addition of test antibodies and reference antibodies in a series diluted concentration, each at 100 μL/well. The cells were incubated away from light at 4° C. for 1 h. Thereafter, the cells in each well were rinsed twice with 100 μL of pre-cooled PBS containing 2% BSA, and centrifuged at 500 g at 4° C. for 5 min, and then the supernatant was discarded. […] Finally, the cells in each well were resuspended in 200 μL of pre-cooled PBS containing 2% BSA, and the fluorescence signal values were read using a BD CantoII flow cytometer.

[2] = target: T2, Cynomolgus macaques CD200R1 isoform a …; assay: flow cytometry, CHOK1/cynoCD200R1a cells; table beside the curves
Description: as §1, §2

[3] = target: T1, human CD200R1 isoform a on CHOK1 cells …; assay: flow cytometry, CHOK1/hCD200R1a cells (FITC-Mean); table beside the curves
Description: as §1
Briefly, CHOK1/hCD200R1a cells and CHOK1-cynoCD200R1a cells were digested, and collected, and then were resuspended in PBS containing 2% BSA, respectively. The cell density was adjusted to 1×10⁶ cells/mL. The cells were seeded in a 96-well V-bottom plate (Corning, #3894) at 100 μL/well, followed by the addition of test antibodies and reference antibodies in a series diluted concentration, each at 100 μL/well. The cells were incubated away from light at 4° C. for 1 h. Thereafter, the cells in each well were rinsed twice with 100 μL of pre-cooled PBS containing 2% BSA, and centrifuged at 500 g at 4° C. for 5 min, and then the supernatant was discarded. 100 μL of fluorescent secondary antibody (Alexa Fluor 488-conjugated AffiniPure Goat Anti-Human IgG, Fcγ Fragment Specific, Jackson, #109-545-098, diluted in a 1:1000 ratio) was added in each well, and the plate was incubated away from light at 4° C. for 1 h. The cells in each well were rinsed twice with 100 μL of pre-cooled PBS containing 2% BSA, and centrifuged at 500 g at 4° C. for 5 min, and then the supernatant was discarded. Finally, the cells in each well were resuspended in 200 μL of pre-cooled PBS containing 2% BSA, and the fluorescence signal values were read using a BD CantoII flow cytometer.

[4] = target: T2, Cynomolgus macaques CD200R1 isoform a …; assay: flow cytometry, CHOK1/cynoCD200R1a cells (APC-A Mean); table beside the curves
[5] = target: T1, human CD200R1 isoform a on CHOK1 cells …; assay: flow cytometry, CHOK1/hCD200R1a cells; table beside the curves, head without unit, x axis Log [Ab] (nM)
Description: as §1, §2

[6] = target: T2, Cynomolgus macaques CD200R1 isoform a …; assay: flow cytometry, CHOK1/cynoCD200R1a cells; table beside the curves, head without unit, x axis Log [Ab] (nM)
Description: as §1, §2

[7] = target: T1, human CD200R1 isoform a on CHOK1 cells …; assay: flow cytometry, CHOK1/hCD200R1a cells (FITC-Mean); table beside the curves, head without unit, x axis Log [Ab] (nM)
[8] = target: T1, human CD200R1 isoform a on CHOK1 cells …; assay: flow cytometry blocking assay: antibody titrated against biotin-labelled human CD200 binding to CHOK1/hCD200R1a cells; head prints EC50 without unit, x axis Log [Ab] (nM), y axis Inhibition %
Description: In brief, CHOK1/hCD200R1a cells were digested and resuspended in 2% BSA in PBS. […] The cells were placed at 4° C. and incubated for 1 hour in the dark. […] 100 μL/well of pre-cooled PBS containing 2% BSA was added to rinse the cells twice, centrifugation was performed at 500 g, 4° C. for 5 minutes, and the supernatant was discarded. Fluorescent secondary antibody (PE Streptavidin, BD, Cat #: 554061, 1:200) was added at 100 μL/well, and incubation was performed at 4° C. for 30 minutes in the dark. The cells were washed twice with 200 μL/well of pre-cooled PBS, and were centrifuged at 500 g, 4° C. for 5 minutes, and the supernatant was discarded. Finally, 200 μL/well of pre-cooled PBS was used to resuspend the cells, and the fluorescence signal values were read using ACEA Novocyte 3000 flow cytometer. IC50 values were calculated.

[9] = target: T1, human CD200R1 isoform a on CHOK1 cells …; assay: flow cytometry blocking assay: antibody titrated against human CD200 binding to CHOK1/hCD200R1a cells

| Binder | MFI(Max) [2] | EC50 [4] | MFI (MAX) [4] | EC50 [6] | MFI(Max) [1] | MFI(Max) [3] | EC50 [5] | EC50 [7] | EC50 [8] | IC50 (read off the curve) [9] |
| --- | --- | --- | --- | --- | --- | --- | --- | --- | --- | --- |
| PR007223 (antibody, human IgG1, kappa, PTM variant of PR006895 (human IgG1)) heavy: not shown light: DIQLTQSPPSLSASVGDRVTITCRASQSISSYLNWFQQKAGKAPKLLISATSNLQSGVPSRFSGSGSGTDFTLTISSLQPEDLATYYCQQTYSSPYTFGQGTKVEIKRTVAAPSVFIFPPSDEQLKSGTASVVCLLNNFYPREAKVQWKVDNALQSGNSQESVTEQDSKDSTYSLSSTLTLSKADYEKHKVYACEVTHQGLSSPVTKSFNRGEC |  |  |  |  |  |  |  |  |  | ~10 nM |
| PR005509 (antibody, human IgG1, kappa, L234A L235A, V domains shown) VH: QVQLVESGGGVVQPGRSLRLSCAASGFTFSSYGFHWVRQAPGKGLEWLGLIWSDGSNKYYADSVKGRFTISRDNSKNTLYLQMNSLRAEDTAVYYCARDRIVGAGFDYWGQGTLVTVSS VL: not shown | 19900 |  |  | 4.2 nM | 101000 |  | 6.57 nM |  |  |  |

More lines, main results first:

| MFI(Max) [2] | EC50 [4] | MFI (MAX) [4] | EC50 [6] | Binder | MFI(Max) [1] | MFI(Max) [3] | EC50 [5] | EC50 [7] | EC50 [8] | IC50 (read off the curve) [9] |
| --- | --- | --- | --- | --- | --- | --- | --- | --- | --- | --- |
| 6440 | 16.4 nM | 23900 | 15.5 nM | PR002906 (antibody, V domains shown, also called recombinant IgG1 antibody of huDX182) VH: QVQLQESGPGLVKPSETLSLTCTVSGYTITSGYDWSWIRQPPGKGLEWIGYINYGGSTNYKPSLGSRVTISVDTSKNQFSLKLSSVTAADTAVYYCARYNEYKSYIYDWYFDFWGQGTLVTVSS VL: DIQMTQSPSSLSASVGDRVTITCKASKNIRSYLAWYQQKPGKAPKLLIYSGSTLHSGVPSRFSGSGSGTDFTLTISSLQPEDFATYYCQQHHEYPLTFGQGTKVEIKR | 131000 | 13900 | 15.2 nM | 0.436 nM | 0.463 nM |  |
|  | 3.78 nM | 62500 |  | PR007973 (antibody, human IgG1, kappa, V domains shown, PTM variant of PR006839 (human IgG1)) VH: QVQLVESGGGVVQPGRSLRLSCAASGFTFSSYGFHWVRQAPGKGLEWLGIIWSDASNKYYADSVKGRFTISRDNSKNTLYLQMNSLRAEDTAVYYCARDRIVGEGFDYWGQGTLVTVSS VL: not shown |  | 19200 |  | 0.339 nM | 0.36 nM | ~10 nM |
